Data published in patent US20260183411A1, “TARGETING SORTILIN” (priority 2024, published 2026).
Bridges are numbered along the chain shown (N, C = ends). Where no end group is shown, it is not given here. Side-chain parts run from the residue outwards. [ ]: non-standard residue; d: D form. tBuAla = CC(C)(C)C[C@H](N)C(=O)O; Tle = CC(C)(C)[C@H](N)C(=O)O; linker = not defined here; Nle = CCCC[C@H](N)C(=O)O; siRNA = not defined here

Experiments:
Human SORT1 (78-755)-His = target: T1, Human SORT1 (78-755)-His (human, UniProt Q99523 78-755); assay: SPR (Biacore 8K), SORT1 on CM5 chip, siRNA-peptide conjugate as analyte, 1:1 model
T1 construct: range 78-755; Amine-coupled to CM5 chip for SPR; Two suppliers are named (Acrobiosystems, GenScript)
T1 sequence (looked up): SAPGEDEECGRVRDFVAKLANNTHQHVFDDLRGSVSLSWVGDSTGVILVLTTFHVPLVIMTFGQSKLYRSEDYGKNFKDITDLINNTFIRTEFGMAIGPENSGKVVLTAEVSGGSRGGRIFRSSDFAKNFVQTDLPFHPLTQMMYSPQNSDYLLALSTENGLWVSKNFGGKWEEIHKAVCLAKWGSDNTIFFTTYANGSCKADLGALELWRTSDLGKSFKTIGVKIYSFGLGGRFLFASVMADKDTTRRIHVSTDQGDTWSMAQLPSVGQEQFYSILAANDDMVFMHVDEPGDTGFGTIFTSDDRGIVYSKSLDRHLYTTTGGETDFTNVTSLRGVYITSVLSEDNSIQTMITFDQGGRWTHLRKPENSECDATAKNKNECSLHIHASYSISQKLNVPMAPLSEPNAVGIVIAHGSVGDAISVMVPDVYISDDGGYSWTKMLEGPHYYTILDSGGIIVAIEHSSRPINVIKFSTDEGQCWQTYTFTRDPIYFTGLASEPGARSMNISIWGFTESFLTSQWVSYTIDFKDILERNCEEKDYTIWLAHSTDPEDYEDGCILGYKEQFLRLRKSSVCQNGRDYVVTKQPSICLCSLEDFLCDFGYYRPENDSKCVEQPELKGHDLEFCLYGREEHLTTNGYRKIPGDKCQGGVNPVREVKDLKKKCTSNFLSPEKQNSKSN
Protocol: (§1) SPR analysis was performed on Series S CM5 chips (Cytiva) using a Biacore 8K instrument (Cytiva). Sensorgrams were double-referenced by subtracting the response on both a reference flow cell and a blank sample. Human SORT1 (78-755)-His (Acrobiosystems), human SORT1 (78-755)-His(GenScript), mouse SORT1 (76-753)-His (R&D Systems), rat SORT1 (76-752)-His (GenScript), and cyno SORT1 (76-753)-His (GenScript) were diluted to 20-60 μg/mL in 10 mM sodium acetate pH 4.5 buffer and immobilized onto Series S CM5 chips using amine coupling at a flow rate of 10 μL/min for 45-100 s.
(§2) Ten start-up cycles and a blank cycle preceded each analysis run. The runs were performed by sequential injections of analyte (0-20 nM, 3-fold serial dilutions) with a 90 s association and 900 s dissociation at a flow rate of 30 μL/min, followed by two regeneration cycles with 2 M MgCl2 for 90 s at a flow rate of 10 μL/min. […] Five start-up cycles and a blank cycle preceded each analysis run. The runs were performed by sequential injections of analyte (0-25 nM) with a 150 seconds (s) association and 300 s dissociation at a flow rate of 30 μL/min, followed by a regeneration with 2 M MgCl₂ for 200 s at a flow rate of 10 μL/min. The kinetic rate constants (kₐ and kd) and the equilibrium binding constant (Kd) were calculated using a 1:1 kinetic binding model on the Biacore Insight Evaluation Software (Cytiva).
(§3) SPR analysis was performed on Series S CM5 chips (Cytiva) using a Biacore 8K instrument (Cytiva). Sensorgrams were double-referenced by subtracting the response on both a reference flow cell and a blank sample. The SPR analysis was conducted using four different SORT1 species: Human SORT1, Mouse SORT1, Rat SORT1, and Cyno SORT1. The samples were prepared according to the general procedure described above herein. The kinetic rate constants (ka and […]) and the equilibrium binding constant (Kd) were calculated using a 1:1 kinetic binding model on the Biacore Insight Evaluation Software (Cytiva).

mouse SORT1 (76-753)-His = target: T2, mouse SORT1 (76-753)-His (mouse, UniProt Q6PHU5 76-753); assay: as above
T2 construct: range 76-753; Amine-coupled to CM5 chip for SPR
T2 sequence (looked up): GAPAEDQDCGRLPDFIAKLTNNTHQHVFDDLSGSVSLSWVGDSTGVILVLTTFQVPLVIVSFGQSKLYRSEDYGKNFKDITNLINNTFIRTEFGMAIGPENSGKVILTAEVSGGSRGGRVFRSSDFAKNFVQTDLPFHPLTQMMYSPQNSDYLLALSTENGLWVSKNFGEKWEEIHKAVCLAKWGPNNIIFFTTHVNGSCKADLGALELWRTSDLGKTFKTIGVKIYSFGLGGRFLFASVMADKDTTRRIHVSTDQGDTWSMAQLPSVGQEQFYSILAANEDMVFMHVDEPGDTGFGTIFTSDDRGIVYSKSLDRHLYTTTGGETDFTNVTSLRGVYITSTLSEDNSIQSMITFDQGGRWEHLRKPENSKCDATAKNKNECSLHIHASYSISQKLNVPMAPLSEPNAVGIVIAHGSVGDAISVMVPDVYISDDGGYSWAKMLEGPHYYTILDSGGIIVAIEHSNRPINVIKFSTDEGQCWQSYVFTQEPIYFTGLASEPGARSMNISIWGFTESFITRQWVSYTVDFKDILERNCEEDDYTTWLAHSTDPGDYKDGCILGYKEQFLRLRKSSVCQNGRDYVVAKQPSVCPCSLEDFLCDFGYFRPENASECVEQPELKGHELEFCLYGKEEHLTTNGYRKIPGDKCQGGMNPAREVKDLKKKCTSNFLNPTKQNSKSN
Protocol: as §1, §2, §3

Kd (Human SORT1 (78-755)-His): 108 nM
Kd (mouse SORT1 (76-753)-His): 178 nM
B1: SORT1 peptide 3 conjugate (peptide)
peptide: RWCENK([linker-siRNA])R[Nle]FTCRQ[Tle][tBuAla]
modifications: disulfide 3-11 (inferred); not fully specified; printed as RWCENKR(Nle)FTCRQ(B13)(F02); reading uncertain
notes: also called SORT1 peptide 3 siRNA conjugate
